Columns and labels:
[1] = target: myristoylated human Arf1, GTP-bound form, anchored on membrane (nanodiscs or LUVs) (human) (UniProt P84077); assay: not stated; binding of the K391A mutant, shown in Fig. SI5
[2] = target: myristoylated human Arf1, GTP-bound form, anchored on membrane (nanodiscs or LUVs) (human) (UniProt P84077)
[3] = target: myrArf1 with Glu54 mutated to Ala (human) (UniProt P84077)
[4] = target: myristoylated human Arf1, GTP-bound form, anchored on membrane (nanodiscs or LUVs) (human) (UniProt P84077); remark: listed apart in the source

Sequence of myristoylated human Arf1, GTP-bound form, anchored on membrane (nanodiscs or LUVs) (human) (P84077 whole entry): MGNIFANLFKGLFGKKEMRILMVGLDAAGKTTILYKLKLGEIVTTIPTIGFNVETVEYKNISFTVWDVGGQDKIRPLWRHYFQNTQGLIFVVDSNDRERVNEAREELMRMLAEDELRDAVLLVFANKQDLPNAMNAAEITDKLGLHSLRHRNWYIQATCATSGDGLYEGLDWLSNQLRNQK
Sequence of myrArf1 with Glu54 mutated to Ala (human) (P84077 other isoform, or with tags, fused parts or gaps, change not shown): as the sequence (P84077 whole entry) above, with E54A counted along it
Sequence of PZA with Lys391 mutated to Ala (Q9QWY8 other isoform, or with tags, fused parts or gaps, change not shown): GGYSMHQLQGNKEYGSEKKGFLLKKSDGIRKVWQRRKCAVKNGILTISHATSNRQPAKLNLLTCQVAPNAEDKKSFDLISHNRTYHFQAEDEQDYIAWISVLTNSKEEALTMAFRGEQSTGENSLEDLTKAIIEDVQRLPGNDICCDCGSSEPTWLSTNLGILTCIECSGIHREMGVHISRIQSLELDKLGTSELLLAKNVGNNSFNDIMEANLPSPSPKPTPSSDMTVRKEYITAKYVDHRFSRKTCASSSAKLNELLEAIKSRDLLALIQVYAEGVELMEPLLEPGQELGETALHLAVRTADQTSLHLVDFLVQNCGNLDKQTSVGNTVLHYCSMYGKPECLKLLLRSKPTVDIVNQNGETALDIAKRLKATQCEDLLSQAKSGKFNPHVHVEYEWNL
Sequence of PZA with Phe438 mutated to Ala (Q9QWY8 other isoform, or with tags, fused parts or gaps, change not shown): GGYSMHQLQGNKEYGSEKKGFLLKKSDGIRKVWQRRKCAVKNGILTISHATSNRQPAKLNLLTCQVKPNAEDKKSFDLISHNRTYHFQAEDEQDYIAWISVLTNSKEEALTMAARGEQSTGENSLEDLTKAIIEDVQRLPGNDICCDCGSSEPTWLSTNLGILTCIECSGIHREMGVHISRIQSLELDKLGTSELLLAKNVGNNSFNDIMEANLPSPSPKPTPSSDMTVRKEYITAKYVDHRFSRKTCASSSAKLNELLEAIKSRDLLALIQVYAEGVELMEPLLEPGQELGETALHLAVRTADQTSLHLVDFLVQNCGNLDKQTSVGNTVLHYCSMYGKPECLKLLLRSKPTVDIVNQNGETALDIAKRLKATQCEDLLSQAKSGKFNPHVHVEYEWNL
Sequence of PZA with His405 mutated to Glu (Q9QWY8 other isoform, or with tags, fused parts or gaps, change not shown): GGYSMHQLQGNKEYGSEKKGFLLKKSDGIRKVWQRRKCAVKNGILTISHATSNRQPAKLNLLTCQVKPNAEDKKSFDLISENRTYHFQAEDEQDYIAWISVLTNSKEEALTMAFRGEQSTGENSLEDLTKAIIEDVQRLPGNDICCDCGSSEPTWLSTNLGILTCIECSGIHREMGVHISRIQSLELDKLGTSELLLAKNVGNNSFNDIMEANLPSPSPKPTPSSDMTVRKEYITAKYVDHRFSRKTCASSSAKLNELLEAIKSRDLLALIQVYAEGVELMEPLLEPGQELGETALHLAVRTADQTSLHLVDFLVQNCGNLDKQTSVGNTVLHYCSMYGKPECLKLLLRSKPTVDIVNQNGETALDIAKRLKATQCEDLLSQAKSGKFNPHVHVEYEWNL
Sequence of wt PZA, [325–724]ASAP1 (PH, Arf GAP and ankyrin repeat domains) (Q9QWY8 325-724): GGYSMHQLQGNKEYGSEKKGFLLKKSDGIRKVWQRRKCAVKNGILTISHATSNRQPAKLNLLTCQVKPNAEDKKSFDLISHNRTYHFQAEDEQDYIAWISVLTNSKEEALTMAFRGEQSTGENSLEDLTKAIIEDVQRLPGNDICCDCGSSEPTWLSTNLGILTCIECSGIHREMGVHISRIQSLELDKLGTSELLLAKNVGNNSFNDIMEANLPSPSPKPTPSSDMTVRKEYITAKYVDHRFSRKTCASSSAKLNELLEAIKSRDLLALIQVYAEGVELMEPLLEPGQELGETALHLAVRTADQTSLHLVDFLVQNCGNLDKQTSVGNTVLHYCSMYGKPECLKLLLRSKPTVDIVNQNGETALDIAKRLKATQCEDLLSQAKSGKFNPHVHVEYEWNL
Sequence of ΔN14 PZA (PZA without residues 325–338) (Q9QWY8 339-724, stated change not applied): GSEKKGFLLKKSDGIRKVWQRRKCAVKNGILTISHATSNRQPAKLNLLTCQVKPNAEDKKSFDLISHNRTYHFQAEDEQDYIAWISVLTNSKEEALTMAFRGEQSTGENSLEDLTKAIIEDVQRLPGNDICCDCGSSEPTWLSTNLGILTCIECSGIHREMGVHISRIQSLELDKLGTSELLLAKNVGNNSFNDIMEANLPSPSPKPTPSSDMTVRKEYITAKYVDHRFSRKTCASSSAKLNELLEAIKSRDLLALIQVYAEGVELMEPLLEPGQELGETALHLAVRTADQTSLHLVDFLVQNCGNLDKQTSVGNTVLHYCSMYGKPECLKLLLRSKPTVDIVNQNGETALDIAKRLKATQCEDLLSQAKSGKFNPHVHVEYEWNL

Substance | ArfGAP activity (C50: concentration of PZA for 50% GTP hydrolysis in 3 min), fold reduction against wild type [2] | further results
ASAP1 PH domain with Lys391 mutated to Ala (from UniProt Q9QWY8 325-451) (domain or fragment) |  | fold reduction of binding against wild type [1]: 2 fold
PZA with Phe438 mutated to Ala (from UniProt Q9QWY8 325-724) (domain or fragment) | 15 fold | 
wt PZA, [325–724]ASAP1 (PH, Arf GAP and ankyrin repeat domains) (from UniProt Q9QWY8 325-724) (domain or fragment) |  | ArfGAP activity (C50: concentration of PZA for 50% GTP hydrolysis in 3 min), fold reduction against wild type [3]: 70 fold
ΔN14 PZA (PZA without residues 325–338) (from UniProt Q9QWY8 339-724) (domain or fragment) |  | GAP activity relative to wt PZA (fold of wt PZA) [4]: < 0.01

Further lines, with some results ahead:

ArfGAP activity (C50: concentration of PZA for 50% GTP hydrolysis in 3 min), fold reduction against wild type [2] | Substance | further results
5 fold | PZA with His405 mutated to Glu (from UniProt Q9QWY8 325-724) (domain or fragment) | 
100 fold | PZA with Lys391 mutated to Ala (from UniProt Q9QWY8 325-724) (domain or fragment) | 

— paper doi:10.1101/2024.12.20.629688
